Experimental data as given in the domain aggregation screens of Martell et al. (2025).

Assay: soluble fraction after stress (log2 fold change); higher = more stays soluble; pooled small domains, quantitative proteomics
Details: stress: 75 degC
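Also: 20 min heating vs room temperature control held 20 min.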

| Sequence | soluble fraction (log2) |
| --- | --- |
| HMVDQVDKDRFLEALTQLGGSAGNVRLRETLQWEEEVYVIIKDALVKSGTILTGRGRGGSVLLASA | -0.95 |
| HMVDSLTIGRRIRQLRTERGMTLEELAAAVGRAPSQLSMIENGRREPKLTLLQAIARALGSTLDALLE | -0.562 |
| HMVDVNLLKYYVMESGKSLTDVAAAIGVTPATLHRKMSGESDFYRKEMQDIASYLGLDRDTIDRIFF | -1.84 |
| HMVEDIVLTDAQIEFVKQQAKNGLSAFQISEMIWPEMSVKRFSKQHVAVLDFLREYEPAYVHDSE | 0.156 |
| HMVEELDVQFIKLTVQGDHPWKNKKIRELSIPWDLLFVLIIRGDKSIIPNGKTTIKDGDIVVVSAPEYRG | -1.12 |
| HMVEFLMESTNGMYGIVKEGSSYYVQKGINESSLDYIGGMFMKDKNRFSSYSTALKRLELISGQET | -0.419 |
| HMVEGMQFDRGYQSPYFVTNAEKMVAELDNPYILLVEKKISSMKELLPVLEPVAQQGKSLLIISEEVEG | 0.0546 |
| HMVEGTVKWFNDEKGFGFIEQEGGKDVFVHFSAINGSGRRTLHEGQRVTMEVTQGQKGPQAENVNP | 0.147 |
| HMVEIPEFKITTFVNTDNEQIAEFENGFTDKKAEITFNNTKYVFKEKLPDQDGIRTYVYEELHE | 0.141 |
| HMVELGMSQNEFIQKFGKPFNKEMAYTYDKHKRETLFYKEDLYRGSWFIVTTAFTFVDSKLVSQEIVREER | -3.36 |
| HMVENMDEFIGRVRRLVSDRLDLLKEASDDEIRETISQVVLELSREQFLTLNEKKTVLEGVFNSMR | -0.944 |
| HMVERLVVSPGAGVFAPNKAIANGTRISVGDVLGMVGEQEVRSLFDGVLQSFISVDGERLTAHQPVAWLRT | -0.587 |
| HMVEVPKVAGMSTAQGVSELEQKGFVVNRTESYDDTVPKGNIISQTPEGGTKVPSGSAVTIKISQGAE | -0.159 |
| HMVEVPNVIGMTKPELTQQFVNLKLDGSGEGDVVVQQSPSEGSKVKEGSTVRVYFG | 0.128 |
| HMVEVPNVSNLTLEQAENKLIQQGLQVKLEGQGEKVVAQIPQPGAVVNKKSTVILF | 0.258 |
| HMVFLPDEIFRLKVIKAGEGPEQGVGYLDDGTMVVIEGARDRIGDELEVRVTSTLQTNAGKMIFTKFE | -0.548 |
| HMVGEPEPIRYSRFLDEMKSGKLDSVVIQGDTILGVRKDKSQFKTVNPETDYSALIGALDKAGVGIEGRA | 0.132 |
| HMVGEYTVKKGDTLWKIAGQTLGSPLRYAEIYELNKDVIEEAALGRGKKNSSNGHWIFQGTVLKIPA | -0.188 |
| HMVGIAEAMKHIADEDYGDLSAIFKQIFSDTDGGRNFSDAIRTQMRSTDSSGLRKVLSTLIMSIEE | -0.651 |
| HMVGNEEALRAIVESIIAQNTTEVASFREGKEGLIGWFLGQVMRQTGGKADPKLARQILLELLKQ | -0.449 |
| HMVGNYYDILGVPETATQDAIKKAFRSLAQQHHPDKNPDDPGAEAMFKKVSEAYQVLSDPDKRQTYDASL | -0.00926 |
| HMVIDFYDPQTKVIHEIKKSSAKEEAHVWQVKYYIYLFEKEEIMGVKGVLEYPLLREIVSVNF | 0.19 |
| HMVINQRKLNLLSIYSSGSEKRAIILFPTGQTKFVKVGDTLDGGRVAAIGTSEIRYLKGGNNLVLRIPG | -2.64 |
| HMVINTRHTGFVVDDLERFINFYLGLGLKLISRKVESGEYIDKLVGLKGTKLEWAKLSLPDNSMIEILKYH | -0.508 |
| HMVIREVNDNPVSAEELRLGDRVKVLSLGQNGEIVTLPDEKGELTVQVGILKAKVNLDDIMLI | -0.177 |

| Sequence | soluble fraction (log2) |
| --- | --- |
| HMVISAKRMQDRRDSILDAAREAFARAGFEGTSIADIARRAGVSDGLVYRYFASKRDLLNAVLTA | -1.61 |
| HMVIVGGDVIVHYVDTEGKKISDDVVKSGNVGEDYSTDQKTILGYRFKEVQGNTSGKFTDKTQVVTYIYT | 0.649 |
| HMVKEVKVPDVEGLTTEEAIKELKKYGLAYTTKSEENTDIEEGKVIRTEPKKGSTKVKGSTVTIIESSG | 0.451 |
| HMVKFGERVKQLRLSAGMTQEQLAERIWVTKAAISNYELSERNPSPETIIKIAGVFGVTTDYLLGLED | -1.9 |
| HMVKIVWSKEGPYVGTRVRRYFSQGPVDGTVVMYAKPQKGDDVALWRISHDDGDEEDLEEQELRLAID | -1.06 |
| HMVKLQATPSQRKTLDELYVQLKKLEPTAKEDLSLLRRLENSHLVSKQEAQGLISKAIGRVGALAVEQQP | 0.0219 |
| HMVKNTIHVDLKGEVNKPGVYEVEEGTIVNDLITLANGFTKNAYQDNINLSKKLTDEMVIVVSKKGS | 0.476 |
| HMVKNVVIPDVSNKAPVDASNQLTDLGFEVVTEYKYIASDTIEEGKVVKTSPEIGSKRKYGQKITLYISSG | -1.23 |
| HMVKRAYGEYVNVKLTDADLSKLKADFPADWQERIERLSTYMASTGKTYKNHLATIRNWARRDAERVSA | 0.958 |
| HMVKVSVYPNPAVDRITISGEVKAYAVYDATGKVVMKDTDYRGGAIGVSHLPAGIYIVRTDAGAVTVNK | -0.595 |
| HMVLSVRDRMVQILDQVKTGEYKRIEDFFSADEGRTGFVVSFVAILELVKGGLLTITQSKNLAPIYVRLPN | -0.0123 |
| HMVLVEEYDTKDSASTFKIGYYARYNTKYGTPSKVGSYADNQRSGIWTFYTDSLKTYFKYNYSTGLIL | 0.0292 |
| HMVLVGERRQKILEVVSSGKAVTVEELSRILHVSPSTVRRDLRFLESRGLLYRTHGGAMPPV | -1.95 |
| HMVLVKFEWTPPDARILVDDHPVEARDKEMELPEGTHHVQALAPRGSGYESTVTDIEVRQGMDPVRIAL | -0.292 |
| HMVMRHTVEHDAELLAVLRLMYPASSSTKLRKMLTQGRVLVNDDVVHRAKHGVASGDTVDVIVRQRAE | -2.21 |
| HMVNFKLIGNKIAEARKKVNISQAQLAQRLFISSQAVGKWERGESMPDIITFNRLAEILGVDLNYFSE | -2.53 |
| HMVNPDAPAPLYIVNGKETDKNIALAIKPEDVQDVRIIKNTVALQVYGEKGKNGVVIINTKPGV | 0.132 |
| HMVNSADLAAKPFIDLLVSTRQQLREAKQYDLADTIRDELTNHGITIEDKPQGSEWQYEFNPNS | 0.0875 |
| HMVNTYILNNKEYPIEIIRKNNKNTYLRVKEGKIIVTTNYLTSSFTINKLIKDNTSFINKALLKEN | -0.71 |
| HMVNYKEILRLAHEGYSQRQIATNIGNSRNTVSEVLDAAKAANIAWPPEETVTNEQLGAILFPNRH | 0.349 |
| HMVNYKEILRLSAEGNSQRQIAAGSGNSRNTVIEVLEAARARGITWPLDEPVTNEQLEAILFPNRY | -0.072 |
| HMVPEETKQFINQLNHGSLSIRMNAANNLEKLGLLAIPEIEAALPKAHGEAAFRLPRLLHALVLRETEYF | 0.185 |
| HMVPEMIRDVISKSIRDMGVLPDHMQINERIALIQSLKKQQILGIKGAVAETARQLGISVPTVYRYMKKG | -0.946 |
| HMVPFISVTPTSLSFAKGGESKTVDIEASGAFSVGKVPTGFNLEVVNGRITITADANTGAARNGSVEFILA | 0.222 |
| HMVPHTTSMVAEVQERLFNLNYDPGPINGRMDQATITAITRFQRNFSLPQTGQIDEGFLNTLRDARL | -0.73 |
